Measurements: the supplement of paper PMC9732359
± gives the uncertainty stated by the source.

Test: protein stability index of a GFP-peptide fusion (yeast GPS) (PSI 1-4); higher = more stable; sorted into four equal gates, so the index is relative within each strain
How it was run: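 For each peptide, the protein stability index sums the read frequency in every gate after multiplying it by the gate number. Read frequencies came from plasmids that were PCR-amplified from each gate and Illumina-sequenced, with reads assigned to strains by barcodes. The gates were four equal bins of GFP/Cherry fluorescence ratio applied to mid-log yeast in leucine-free medium carrying a pooled library of tiled 17-residue yeast protein peptides fused downstream of GFP on a Cherry-expressing plasmid.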

Sequence | protein stability index (doa10∆) | protein stability index (pdr5∆) | protein stability index (san1∆) | protein stability index (ubr1∆)
EDLFDDYPSTSLDIRHD [NUT1] | 1.81 ± 0.081 | 2.9 ± 0.077 | 3.09 ± 0.058 | 2.05 ± 0.056
EDLLHYIEEKHPTIYES [POP4] | 3.47 ± 0.078 | 3.4 ± 0.093 | 3.37 ± 0.077 | 3.27 ± 0.084
EDNGIVKALRNVPGVET [RPL4A] | 1.77 ± 0.16 | – | 2.46 ± 0.11 | 2.47 ± 0.19
EDTPANDSSATRSWRPP [RPB8] | 2.44 ± 0.24 | 2.88 ± 0.18 | 2.47 ± 0.2 | 2.95 ± 0.084
EEAKEESDDDMGFGLFD [RPP1A] | 3.09 ± 0.053 | 3.15 ± 0.061 | 3.22 ± 0.028 | 3.26 ± 0.045
EEARRKHVSGKILGFVY [RPS22A] | 2.82 ± 0.2 | 2.67 ± 0.18 | 2.97 ± 0.16 | 2.9 ± 0.097
EEEEDTTTTANINEVKK [NUT1] | 3.24 ± 0.098 | 3.39 ± 0.11 | 3.09 ± 0.084 | 3.33 ± 0.15
EEEVTDQLEDLREHFKN [QCR6] | 3.14 ± 0.17 | 3.06 ± 0.083 | 3.26 ± 0.09 | 3.29 ± 0.14
EEISFSLSEGCDILVAT [PRP28] | 2.62 ± 0.1 | 2.69 ± 0.06 | 2.72 ± 0.071 | 2.96 ± 0.058
EELKNMFLYILKHLEEM [RRI2] | 2.25 ± 0.16 | 1.93 ± 0.11 | 1.32 ± 0.11 | 1.73 ± 0.097
EEQKSSDTSKPAFTFGA [YJL041W/NSP1] | 3.25 ± 0.07 | 3.15 ± 0.06 | 2.89 ± 0.059 | 3.23 ± 0.05
EERSNNLLTPQPTNFTT [MCD1] | 3.02 ± 0.061 | 3.11 ± 0.063 | 2.91 ± 0.061 | 3.12 ± 0.05
EETDDEDKQNIEINEDN [RRI2] | 3.52 ± 0.08 | 3.25 ± 0.07 | 3.26 ± 0.045 | 3.25 ± 0.038
EEVVSNDEGVWDLVDER [PRP8] | 3.56 ± 0.073 | 3.47 ± 0.057 | 3.42 ± 0.07 | 3.49 ± 0.058
EEYKKSLYAYCHSKLRG [GRR1] | 2.29 ± 0.074 | 2.31 ± 0.07 | 2.42 ± 0.09 | 2.44 ± 0.075
EFEYDDEPDEQGNPKKR [CYT1] | 3.21 ± 0.076 | 3.28 ± 0.073 | 3.04 ± 0.07 | 3.15 ± 0.07
EFFSTNWLSIFNDFSNI [REC8] | 2.83 ± 0.075 | 2.91 ± 0.067 | 2.09 ± 0.098 | 2.83 ± 0.08
EFIFGTYNMIDAAAEKR [ARP7] | 2.99 ± 0.057 | 3.02 ± 0.057 | 3.08 ± 0.044 | 3.12 ± 0.04
EFISIYSNSHQMAVHIA [RET1] | 3.25 ± 0.11 | 3.45 ± 0.19 | 3.04 ± 0.11 | 3.11 ± 0.087
EFLYSKAGREELERVNV [QCR8] | – | – | 3.28 ± 0.11 | 3.27 ± 0.17
EFQIEDAIWSLVFQLAK [SRB8] | 3.63 ± 0.18 | 3.36 ± 0.23 | – | –
EFTLFMDIAERIAVLHQ [YGL172W/NUP49] | 2.77 ± 0.075 | 2.54 ± 0.056 | 2.24 ± 0.068 | 2.9 ± 0.048
EFVSYYYAHSIPSSKID [SNU114] | 2.01 ± 0.045 | 1.9 ± 0.052 | 2.07 ± 0.063 | 1.62 ± 0.039
EGIEKMGVRTFSQKEMA [FAS2] | 2.96 ± 0.16 | 2.73 ± 0.24 | 2.88 ± 0.071 | 2.89 ± 0.061
EGKRIAFGFVDRTLPHF [RPO21] | 2.89 ± 0.058 | 2.98 ± 0.054 | 2.95 ± 0.048 | 3.13 ± 0.035
EGLELLGWIHTQTEELK [PRP8] | 2.94 ± 0.1 | 2.65 ± 0.091 | 3.16 ± 0.053 | 3.29 ± 0.099
EGRLYQVEYALESISHA [PRE9] | 2.09 ± 0.056 | 2.19 ± 0.068 | 1.98 ± 0.086 | 1.85 ± 0.048

Sequence | protein stability index (doa10∆) | protein stability index (pdr5∆) | protein stability index (san1∆) | protein stability index (ubr1∆)
EGTSISVHLIECYKQLF [YCS4] | 3.46 ± 0.14 | 3.39 ± 0.12 | 3.42 ± 0.14 | 3.3 ± 0.063
EHFSHFGHIMEDFQVLR [YDL088C/ASM4] | 3.03 ± 0.063 | 2.92 ± 0.045 | 2.54 ± 0.059 | 2.44 ± 0.045
EHIIRDVHNGYILRYLH [COB] | 2.35 ± 0.23 | 1.7 ± 0.13 | 1.39 ± 0.16 | 2 ± 0.11
EHRRYDDQLKQRRQNIR [RPT4] | 2.62 ± 0.18 | 2.46 ± 0.18 | 2.29 ± 0.14 | 2.69 ± 0.12
EHSQVEQTCVKLLDSGC [SRP72] | 3.15 ± 0.068 | 3.38 ± 0.083 | 3.11 ± 0.085 | 3.34 ± 0.063
EIAGLSPYERRLIDLIR [RPL36A] | 2.31 ± 0.088 | 2.37 ± 0.077 | 2.02 ± 0.14 | 2.29 ± 0.071
EIEIEGVMSLLQKSSKS [YAR002W/NUP60] | 2.99 ± 0.11 | 3.05 ± 0.16 | 3.26 ± 0.09 | 3.25 ± 0.072
EIFQLFTNPSVDIQIIN [SWI1] | 2.69 ± 0.081 | 2.88 ± 0.09 | 2.55 ± 0.078 | 2.54 ± 0.064
EILTNQQRGITYLNEVL [YGR119C/NUP57] | 2.7 ± 0.068 | 3.09 ± 0.079 | 3.12 ± 0.061 | 2.71 ± 0.066
EIMYTGVSISVSFNSKQ [SMC3] | 1.61 ± 0.089 | 1.99 ± 0.07 | 2.83 ± 0.087 | 2.29 ± 0.1
EISTSKKNNLEFGTYGK [RPN14] | 2.6 ± 0.08 | 2.13 ± 0.061 | 2.17 ± 0.082 | 2.04 ± 0.059
EITAKEVYDFTHAVGNN [FAS1] | 3 ± 0.065 | 3.15 ± 0.051 | 2.92 ± 0.046 | 3.08 ± 0.039
EITQQEKGLNELSIRDV [SMC4] | 1.75 ± 0.11 | 2.64 ± 0.076 | 2.74 ± 0.089 | 1.85 ± 0.087
EITVVKPDSDIVALSSE [PRE6] | 3.1 ± 0.058 | 3.23 ± 0.051 | 3.24 ± 0.04 | 3.3 ± 0.049
EKAKSAGVQGSKVSKQQ [RPL24B] | 3.48 ± 0.14 | 3.4 ± 0.11 | 3.31 ± 0.14 | –
EKIAAGYMQKPVYATIG [PRP28] | 2.87 ± 0.19 | 2.67 ± 0.076 | 2.67 ± 0.15 | 2.67 ± 0.094
EKIKDIHNTKLPAYSGE [POP1] | 3.09 ± 0.059 | 3.04 ± 0.057 | 2.96 ± 0.048 | 2.79 ± 0.08
EKIKKINYHQYISKAQN [SSN2] | 1.82 ± 0.055 | 2.18 ± 0.041 | 2.07 ± 0.078 | 2.15 ± 0.062
EKIMILLVPLALLTKRL [CSN12] | 1.95 ± 0.045 | 1.47 ± 0.04 | 1.33 ± 0.069 | 1.3 ± 0.03
EKKILNQFLKIKKKRKE [SMC1] | 2.98 ± 0.12 | 3.06 ± 0.12 | 2.89 ± 0.1 | 3.33 ± 0.15
EKKNDENSTSNSKPEKS [YLR335W/NUP2] | 3.24 ± 0.086 | 3.21 ± 0.1 | 3.28 ± 0.054 | 3.3 ± 0.056
EKLITSKLLVPQKNVKI [PRE10] | 2.55 ± 0.061 | 2.6 ± 0.047 | 2.04 ± 0.096 | 2.21 ± 0.042
EKLKVNMEKEKDRIIDE [YIL149C/MLP2] | 3.37 ± 0.23 | 3.05 ± 0.2 | 3.39 ± 0.1 | 2.75 ± 0.14
EKPQFKDGETTDANGKT [RPO26] | 3.36 ± 0.076 | 3.3 ± 0.047 | 3.36 ± 0.059 | 3.28 ± 0.05
EKSDALVGVYRQQQENS [SMC1] | 3.25 ± 0.13 | 3.37 ± 0.098 | 3.41 ± 0.12 | 2.85 ± 0.096
ELAAKEEPAKEEAPAPT [FAS2] | 3.08 ± 0.2 | 3.24 ± 0.14 | – | –
